Results on one substance are retold here after doi:10.1101/2020.10.29.360743.

As a reminder, the stoichiometry N is a count of units in the complex or per binding partner.

In the assay the target is AcoD, ATP-dependent DMSP lyase of Psychrobacter sp. D2 (Psychrobacter sp. D2). The assay is described as follows: SEC. (In gel filtration, larger molecules generally elute earlier.)

Regarding “AcoD, ATP-dependent DMSP lyase of Psychrobacter sp. D2 (enzyme)”, the stoichiometry N amounted to 2.
